Data from article PMC11467860.
Read-outs that look alike come from different tables or passages of the source.

Assays:
Experiment in all cases: EMSA
[1] = biological target: Dicer S839A (Homo sapiens, UniProt Q9UPY3 1-1922, S839A)
[2] = biological target: T1, Dicer S839F (Homo sapiens, UniProt Q9UPY3 1-1922, S839F)
[3] = biological target: T1, Dicer S839F; remark: listed apart in the source

T1 sequence (Q9UPY3 whole entry S839F): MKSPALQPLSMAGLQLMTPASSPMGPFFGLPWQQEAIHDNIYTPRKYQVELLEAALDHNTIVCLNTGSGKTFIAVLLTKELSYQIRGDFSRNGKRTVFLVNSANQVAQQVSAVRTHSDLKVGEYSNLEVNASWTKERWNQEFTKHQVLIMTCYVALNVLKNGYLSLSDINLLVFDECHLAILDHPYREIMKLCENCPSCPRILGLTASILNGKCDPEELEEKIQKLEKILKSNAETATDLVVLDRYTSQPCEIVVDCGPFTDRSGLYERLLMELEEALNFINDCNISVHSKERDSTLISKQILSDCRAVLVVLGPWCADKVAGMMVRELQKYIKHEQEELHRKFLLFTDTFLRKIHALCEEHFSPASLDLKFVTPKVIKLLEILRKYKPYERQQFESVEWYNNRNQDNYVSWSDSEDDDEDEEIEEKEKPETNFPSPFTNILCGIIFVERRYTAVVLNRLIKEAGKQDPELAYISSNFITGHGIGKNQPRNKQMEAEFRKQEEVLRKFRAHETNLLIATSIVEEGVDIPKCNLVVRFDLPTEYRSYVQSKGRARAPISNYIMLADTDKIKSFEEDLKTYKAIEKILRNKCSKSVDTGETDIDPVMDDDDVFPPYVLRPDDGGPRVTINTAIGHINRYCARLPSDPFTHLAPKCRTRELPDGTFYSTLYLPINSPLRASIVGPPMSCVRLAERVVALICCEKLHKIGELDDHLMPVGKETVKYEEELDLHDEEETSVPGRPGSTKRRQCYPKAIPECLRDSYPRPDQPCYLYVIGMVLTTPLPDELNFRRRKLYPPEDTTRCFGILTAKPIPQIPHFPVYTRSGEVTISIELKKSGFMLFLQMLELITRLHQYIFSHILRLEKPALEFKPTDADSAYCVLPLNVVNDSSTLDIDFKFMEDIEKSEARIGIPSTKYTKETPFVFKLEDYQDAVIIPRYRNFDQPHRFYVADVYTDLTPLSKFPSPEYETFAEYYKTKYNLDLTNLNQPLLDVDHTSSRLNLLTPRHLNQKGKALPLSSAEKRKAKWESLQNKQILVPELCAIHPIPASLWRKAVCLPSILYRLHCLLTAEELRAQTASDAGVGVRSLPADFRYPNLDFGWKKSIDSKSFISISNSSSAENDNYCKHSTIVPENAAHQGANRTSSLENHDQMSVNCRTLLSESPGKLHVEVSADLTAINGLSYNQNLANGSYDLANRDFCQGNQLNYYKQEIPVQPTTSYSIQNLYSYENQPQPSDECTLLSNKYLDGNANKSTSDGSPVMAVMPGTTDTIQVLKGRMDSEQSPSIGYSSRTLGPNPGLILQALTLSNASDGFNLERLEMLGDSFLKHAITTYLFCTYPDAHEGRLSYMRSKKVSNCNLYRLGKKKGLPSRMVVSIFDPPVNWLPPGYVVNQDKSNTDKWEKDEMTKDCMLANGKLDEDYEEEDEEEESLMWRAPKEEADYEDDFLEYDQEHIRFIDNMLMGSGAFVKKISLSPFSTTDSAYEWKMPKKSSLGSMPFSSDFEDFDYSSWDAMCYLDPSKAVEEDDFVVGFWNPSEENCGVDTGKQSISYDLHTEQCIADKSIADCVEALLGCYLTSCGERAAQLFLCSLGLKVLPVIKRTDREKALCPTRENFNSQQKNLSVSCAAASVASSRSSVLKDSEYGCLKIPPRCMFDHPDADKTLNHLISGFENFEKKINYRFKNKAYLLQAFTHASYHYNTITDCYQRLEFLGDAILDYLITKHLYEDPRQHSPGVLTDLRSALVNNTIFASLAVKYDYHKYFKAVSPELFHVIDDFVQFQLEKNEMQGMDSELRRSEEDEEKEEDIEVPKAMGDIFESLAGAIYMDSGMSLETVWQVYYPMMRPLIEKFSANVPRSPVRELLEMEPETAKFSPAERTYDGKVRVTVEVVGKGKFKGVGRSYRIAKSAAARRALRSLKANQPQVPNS
Sequence of Dicer S839A (Q9UPY3 whole entry S839A): as the sequence (Q9UPY3 whole entry S839F) above, with F839A counted along it

| Binder | binding result [1] | binding result [2] | binding result [3] |
| --- | --- | --- | --- |
| pre-miR-21 (structured_RNA, 5' phosphate) RNA: UAGCUUAUCAGACUGAUGUUGACUGUUGAAUCUCAUGGCAACACCAGUCGAUGGGCUGUC | binds | no binding |  |
| snord37 (structured_RNA) RNA: AUUCGUGAUGACUGAUCAUUUCUUCACUUUGACCAGAUGUCUACUGAAGAAAGCCUGCGUCUGAGG |  |  | binds |
